± gives the standard deviation of the averaged measurements.
Assay: total protein half-life in vivo (active degradation + dilution); higher = more stable protein
[1] = E. coli NCM3722 delta-clpP delta-lon delta-hslV, growth: N-lim chemostat, doubling time 6 h
[2] = E. coli NCM3722 delta-clpP, growth: N-lim chemostat, doubling time 6 h
[3] = E. coli NCM3722 delta-hslV, growth: N-lim chemostat, doubling time 6 h
[4] = E. coli NCM3722 delta-lon, growth: N-lim chemostat, doubling time 6 h
[5] = E. coli NCM3722 delta-smpB, growth: N-lim chemostat, doubling time 6 h
[6] = wild type E. coli NCM3722, growth: C-lim chemostat, doubling time 3 h
[7] = wild type E. coli NCM3722, growth: C-lim chemostat, doubling time 6 h
[8] = wild type E. coli NCM3722, growth: C-lim chemostat, doubling time 12 h
[9] = wild type E. coli NCM3722, growth: N-lim chemostat, doubling time 6 h
[10] = wild type E. coli NCM3722, growth: N-lim chemostat, doubling time 12 h
[11] = wild type E. coli NCM3722, growth: P-lim chemostat, doubling time 6 h
[12] = wild type E. coli NCM3722, growth: P-lim chemostat, doubling time 12 h

Sequence | total protein half-life in vivo [1] | total protein half-life in vivo [2] | total protein half-life in vivo [3] | total protein half-life in vivo [4] | total protein half-life in vivo [5] | total protein half-life in vivo [6] | total protein half-life in vivo [7] | total protein half-life in vivo [8] | total protein half-life in vivo [9] | total protein half-life in vivo [10] | total protein half-life in vivo [11] | total protein half-life in vivo [12]
MVTINNARKILQRVDTLPLYLHAYAFHLNMRLERVLPADLLDIASENNLRGVKIHVLDGERFSLGNMDDKELSAFGDKARRLNLDIHIETSASDKASIDEAVAIALKTGASSVRFYPRYEGNLRDVLSIIANDIAYVRETYQDSGLTFTIEQHEDLKSHELVSLVKESEMESLSLLFDFANMINANEHPIDALKTMAPHITQVHIKDALIVKEPGGLGHKACISGQGDMPFKALLTHLICLGDDEPQVTAYGLEEEVDYYAPAFRFEDEDDNPWIPYRQMSETPLPENHLLDARLRKEKEDAINQINHVRNVLQQIKQEANHLLNH | 4.45 ± 0.4 h | 2.09 ± 0.14 h | 2.28 ± 0.57 h | 3.21 h | 1.68 ± 0.29 h | 1.99 ± 0.052 h | 2.9 h | 4.36 ± 0.28 h | 2.77 h | 3.27 ± 0.036 h | 2.88 h | 4.74 ± 0.53 h
MVTSCTGHVLDNQRATTRGVFSSGSHLVTLHFQPHPFFSCVTDAVNGARSRFSAFYPKANYGLQGSQPSDVRAHNRAANGACDEYKQLKVLSMGRQKAVIKARREAKRVLRRDSRSHKQREEESVTSLVQMGGVEAIGMARDSRDTSPILARNEAQLHYLKAIESKQLIFATGEAGCGKTWISAAKAAEALIHKDVDRIIVTRPVLQADEDLGFLPGDIAEKFAPYFRPVYDVLVRRLGASFMQYCLRPEIGKVEIAPFAYMRGRTFENAVVILDEAQNVTAAQMKMFLTRLGENVTVIVNGDITQCDLPRGVCSGLSDALERFEEDEMVGIVRFGKEDCVRSALCQRTLHAYS [P0A9K1] | 5.82 ± 0.65 h | 1.96 ± 0.059 h | 0.55 ± 0.47 h | 0.666 ± 0.43 h | 0.308 ± 0.011 h | 0.166 ± 0.058 h | 0.347 ± 0.25 h | 0.864 h | 0.735 ± 0.45 h | 0.571 h | 0.355 h | 1.23 ± 0.8 h
MVWIDYAIIAVIAFSSLVSLIRGFVREALSLVTWGCAFFVASHYYTYLSVWFTGFEDELVRNGIAIAVLFIATLIVGAIVNFVIGQLVEKTGLSGTDRVLGVCFGALRGVLIVAAILFFLDSFTGVSKSEDWSKSQLIPQFSFIIRCFFDYLQSSSSFLPRA | – | – | – | – | – | – | – | – | – | 7.81 h | – | –
MWDVIDLSRWQFALTALYHFLFVPLTLGLIFLLAIMETIYVVTGKTIYRDMTRFWGKLFGINFALGVATGLTMEFQFGTNWSFYSNYVGDIFGAPLAMEALMAFFLESTFVGLFFFGWQRLNKYQHLLVTWLVAFGSNLSALWILNANGWMQYPTGAHFDIDTLRMEMTSFSELVFNPVSQVKFVHTVMAGYVTGAMFIMAISAWYLLRGRERNVALRSFAIGSVFGTLAIIGTLQLGDSSAYEVAQVQPVKLAAMEGEWQTEPAPAPFHVVAWPEQDQERNAFALKIPALLGILATHSLDKPVPGLKNLMAETYPRLQRGRMAWLLMQEISQGNREPHVLQAFRGLEGDLGYGMLLSRYAPDMNHVTAAQYQAAMRGAIPQVAPVFWSFRIMVGCGSLLLLVMLIALVQTLRGKIDQHRWVLKMALWSLPLPWIAIEAGWFMTEFGRQPWAIQDILPTYSAHSALTTGQLAFSLIMIVGLYTLFLIAEVYLMQKYARLGPSAMQSEQPTQQQG | 3.4 h | – | 4.58 ± 0.54 h | 1.46 h | 1.93 h | – | – | – | 5.27 ± 0.94 h | 14.6 h | 0.869 h | 2.11 h
MWKRLLIVSAVSAAMSSMALAAPLTVGFSQVGSESGWRAAETNVAKSEAEKRGITLKIADGQQKQENQIKAVRSFVAQGVDAIFIAPVVATGWEPVLKEAKDAEIPVFLLDRSIDVKDKSLYMTTVTADNILEGKLIGDWLVKEVNGKPCNVVELQGTVGASVAIDRKKGFAEAIKNAPNIKIIRSQSGDFTRSKGKEVMESFIKAENNGKNICMVYAHNDDMVIGAIQAIKEAGLKPGKDILTGSIDGVPDIYKAMMDGEANASVELTPNMAGPAFDALEKYKKDGTMPEKLTLTKSTLYLPDTAKEELEKKKNMGY | 5.47 ± 0.2 h | 5.64 ± 0.063 h | 6.128 ± 0.015 h | 5.93 ± 0.48 h | 5.06 ± 0.13 h | 3.09 ± 0.11 h | 6.11 ± 0.068 h | 12 ± 1.7 h | 5.68 ± 1.1 h | 11.9 ± 1.6 h | 5.4 ± 0.41 h | 13.35 ± 0.018 h
MWQAISRLLSEQLGEGEIELRNELPGGEVHAAWHLRYAGHDFFVKCDERELLPGFTAEADQLELLSRSKTVTVPKVWAVGADRDYSFLVMDYLPPRPLDAHSAFILGQQIARLHQWSDQPQFGLDFDNALSTTPQPNTWQRRWSTFFAEQRIGWQLELAAEKGIAFGNIDAIVEHIQQRLASHQPQPSLLHGDLWSGNCALGPDGPYIFDPACYWGDRECDLAMLPLHTEQPPQIYDGYQSVSPLPADFLERQPVYQLYTLLNRARLFGGQHLVIAQQSLDRLLAA | 4.14 ± 0.66 h | 3.457 ± 0.023 h | 3.84 ± 0.5 h | 3.77 ± 0.099 h | 3.3 ± 0.13 h | 3.159 ± 0.0069 h | 5.21 ± 0.11 h | 9.56 ± 0.57 h | 3.31 ± 0.31 h | 5.08 ± 0.18 h | 5.685 ± 0.017 h | 11.2 ± 0.46 h
MYDFVIIGGGIIGMSTAMQLIDVYPDARIALLEKESAPACHQTGHNSGVIHAGVYYTPGSLKAQFCLAGNRATKAFCDQNGIRYDNCGKMLVATSDLEMERMRALWERTAANGIEREWLNADELREREPNITGLGGIFVPSSGIVSYRDVTAAMAKIFQSRGGEIIYNAEVSGLNEHKNGVVIRTRQGGEYEASTLISCSGLMADRLVKMLGLEPGFIICPFRGEYFRLAPEHNQIVNHLIYPIPDPAMPFLGVHLTRMIDGSVTVGPNAVLAFKREGYRKRDFSFSDTLEILGSSGIRRVLQNHLRSGLGEMKNSLCKSGYLRLVQKYCPRLSLSDLQPWPAGVRAQAVSPDGKLIDDFLFVTTPRTIHTCNAPSPAATSAIPIGAHIVSKVQTLLASQSNPGRTLRAARSVDALHAAFNQ | 5.44 ± 0.2 h | 6.32 ± 1.6 h | 5.3 ± 0.37 h | 4.94 ± 0.065 h | 4.58 ± 0.47 h | 2.7 ± 0.3 h | 5.48 ± 0.23 h | 9.35 ± 0.39 h | 5.4 ± 0.44 h | 9.37 ± 0.29 h | 4.51 ± 0.93 h | 10.8 ± 0.21 h
MYDYIIVGSGLFGAVCANELKKLNKKVLVIEKRNHIGGNAYTEDCEGIQIHKYGAHIFHTNDKYIWDYVNDLVEFNRFTNSPLAIYKDKLFNLPFNMNTFHQMWGVKDPQEAQNIINAQKKKYGDKVPENLEEQAISLVGEDLYQALIKGYTEKQWGRSAKELPAFIIKRIPVRFTFDNNYFSDRYQGIPVGGYTKLIEKMLEGVDVKLGIDFLKDKDSLASKAHRIIYTGPIDQYFDYRFGALEYRSLKFETERHEFPNFQGNAVINFTDANVPYTRIIEHKHFDYVETKHTVVTKEYPLEWKVGDEPYYPVNDNKNMELFKKYRELASREDKVIFGGRLAEYKYYDMHQVISAALYQVKNIMSTD | 6.0745 ± 0.0011 h | 3.11 h | – | 4.59 ± 0.33 h | 2.83 ± 0.48 h | – | – | – | 3.52 h | – | – | 11.8 h
MYHDVSYLLSRLINGPLSLRQIYFASSNGPVPDLAYQVDFPRLEIVLEGEFVDTGAGATLVPGDVLYVPAGGWNFPQWQAPATTFSVLFGKQQLGFSVVQWDGKQYQNLAKQHVARRGPRIGSFLLQTLNEMQMQPQEQQTARLIVASLLSHCRDLLGSQIQTASRSQALFEAIRDYIDERYASALTRESVAQAFYISPNYLSHLFQKTGAIGFNEYLNHTRLEHAKTLLKGYDLKVKEVAHACGFVDSNYFCRLFRKNTERSPSEYRRQYHSQLTEKPTTPE | 5.77 ± 0.063 h | 3.94 h | 4.1 h | 5.72 ± 1.3 h | 4.21 ± 0.49 h | 2.6 h | 6.09 ± 1.5 h | 8.5207 ± 0.0056 h | 3.8 ± 0.55 h | 6.04 h | 3.26 h | 5.79 ± 0.83 h

— the supplement of paper PMC11246515
